Laboratory results as given in patent publication US10654917B2, “Antibody molecules and peptide delivery systems for use in alzheimer's disease and related disorders” (TECHNOPHAGE, INVESTIGAÇĀO E DESENVOLVIMENTO EM …, priority 2015, dated 2020).

B1: #27in: anti-BAP42 sdAb, SEQ ID NO: 4 (antibody, V domains shown)
VL: ELVLTQTPSSVSAAVGGTVTINCQASQSVSNRLAWYQQKPGQPPKLLIYGASRLESGVPSRFRGSGSGTEFTLTISGMKAEDAATYYCQSCYYSVGVTFGAGTNVEIK

Columns and labels:
[1] = test system: in vitro model of the BBB (bEnd3 cells); experiment: Transmigration of radiolabelled peptides across in vitro BBB model; assay type: in vitro ADME
Protocol: Using the same in vitro model of the BBB described above, peptides labelled with technetium and gallium were tested for the ability to cross endothelial barrier. For each peptide, bEnd3 cells cultured on “tissue culture inserts” were incubated with 5 ρCimL^−1-labelled peptide for different incubation times: 15 min, 5 h and 24 h. As a control, the model without cells was used (Control no cells) or (Filters) and compared to models with cells (BBB) or (Cells).
FIGS. 21A-21F show the percent activity of the radioisotope technetium-labelled peptides at the apex and base after 5 hours of incubation with the in vitro model described above, using the BBB-model or no cells (as a control); and values were obtained from two independent assays. […] Moreover, the results indicated promising candidates. Specifically, for each of pepH1 and pepH3, there was an overpass of 50% in the control, compared with only 20% in the presence of a cell barrier. The translocation of pepH2 was not observed in either the control nor in the BBB model.
Results for the incubations of 15 minutes, 5 hours, and 24 hours are shown together in FIGS. 22A-22F. That is, FIGS. 22A-22F show the percent activity of the radioisotope technetium-labelled peptides at the apex and base after 15 minutes, 5 hours, and 24 hours of incubation with the in vitro model described above, using the BBB-model or no cells (as a control); and values were obtained from two independent assays. Differences again were observed, confirming the integrity of the barrier, as well as identifying peptides that crossed the barrier. […] PepR′ thus was excluded from further tests.
(§1) Table 9 summarizes results regarding uptake (internalization) and cellular interaction, as well as transmigration across an in vitro model for BBB, for peptides labelled with technetium and gallium, after 15 minutes, 5 hours, and 24-hours of incubation, based on percent recovery of radiopeptide. The Table lists the peptides, providing each peptide's name, % BBB transmigration, % cellular interaction, and % internalized, each after […], 5 hours, and 24 hours of incubation.

[2] = Features of peptides: isoelectric point, charge; assay type: physicochemical; conditions: original peptide
Text: Table 7 lists each peptide's name, isoelectric point (PI), charge (number of positive residues), calculated mass (in Da), and ion found; as well as the name, calculated mass, and found ion for the corresponding conjugate; and also retention times in HPLC and the partition coefficient (log Po/w). These values allowed the determination of the hydrophilic nature of peptides, where pepH1 and pepH4 were identified as the most hydrophilic peptides.

bEnd3 cells [3] = experiment: Uptake test: cellular interaction (acid wash) and internalization (lysate); assay type: cell-based
Protocol: In addition to testing models of BBB, an uptake test was performed to determine the internalizing ability of the candidate peptides. BEnd3 cells were cultured in 24 well plates. At each time point, the medium containing the peptide, which had not interacted with the cells, was collected. In the next step, the cells were washed with an acidic buffer that releases peptides more strongly bound to the cell membrane (sample acid wash). Finally, the cells were lysed to release internalized peptides and to quantify the activity inside the cells. Results are showing in FIGS. 23A-23E.
FIGS. 23A-23E show percent activity of the radioisotope technetium-labelled peptides in the media, wash buffer (acid wash) and lysate, after 15 minutes, 5 hours, and 24 hours of incubation with bEnd3 cells; and values were obtained from two independent assays. […] PepM′, as well as showing high transmigration (about 50%), also appeared to become internalized and accumulated within the cells (about 13% of radioactivity in the lysate).
as §1

[4] = Biodistribution of technetium-labelled peptides; assay type: in vivo, CD1 mice
Protocol: To evaluate the capacity to cross the BBB in vivo, the selected peptides, pepH1 and pepH3, were analyzed for biodistribution in CD1 mice. The peptides were labelled with technetium at a final concentration of 8.5×10^−5 M and diluted in PBS. CD1 mice were injected (iv injection, tail vein). The mice were sacrificed by cervical dislocation after 5 and 60 minutes of incubation. The tissues of interest were dissected and washed to remove excess blood, weighed, and measured for radioactivity. Technetium radioactivity of the different peptides was measured for different organs.
Initial results are presented in Table 11, where “% I.A. refers to the “% injected activity”, that is, the amount of radioactivity measured in a given organ compared to the total originally injected.
The biodistribution studies were repeated, using higher doses of each peptide, specifically, a one hundred fold increase, as well as using PepH2 as a negative control, and allowing incubation for 2 minutes and 60 minutes. Tissue biodistribution profile in percentage of injected radiopeptide activity per gram of tissue/organ was measured and results are presented in Table 12.

bEnd3 cells [5] = experiment: MTT cell viability assay; assay type: cell-based; conditions: for effect on cell viability: 0.1-100 μM (pepM′ 0.1-50 μM), 24 hours; for cell death: concentration below 40 μM, peptide in DMSO
Protocol: To test possible toxicity of selected peptides to BBB cells, 5×10^4 bEnd3 cells were cultured in 96-well plates, at 100 μL/well, and incubated for 24 hours. The peptides then were added at concentrations of 0.1-100 μM, with the exception of pepM′ (which was added at concentrations of 0.1-50 μM). As a control providing 100% of viability, a well with serum-free media was included.
After 24 hours of incubation, a MTT assay was performed, which is a colorimetric assay for assessing cell metabolic activity. A MTT solution at 5 mg/mL in PBS was added to each well and incubated for 2 hours. After this period, the solution was removed and DMSO added to solubilize violet crystals formed. Absorbance was measured at 540 nm. The viability percentage [Absorbancepeptide-treated cells/Absorbanceuntreated-cells)*100] was calculated and IC50 values were calculated from three independent assays.
As FIGS. 24A-24E show, the selected peptides have no effect on cell viability, specifically, there was no observable nor measurable effect using the assay described.

[6] = parameters: species or system CD1 mice; conditions: mouse, in vivo
Protocol: The different antibody-peptide constructs were used in biodistribution assays, and results compared with the biodistribution of the respective DEN2C peptides (pepH1, pepH2, pepH3, and pepM′, chemically synthesized). […] After expression and purification, the sdAbs and sdAb-peptide constructs were conjugated to technetium (^99Tc) and a biodistribution assay was performed, as previously described.
Tables 14-16 show the biodistribution of different anti-BAP42 sdAbs and constructs thereof with different peptides (“pepH3”).

[7] = 99mTc, 24 hours, listed as PepHM′

Molecule | BBB transmigration ([1]; 99mTc, 24 hours) | BBB transmigration ([1]; 99mTc, 0.25 hours) | BBB transmigration ([1]; 99mTc, 5 hours) | BBB transmigration ([1]; GaCl3, 0.25 hours) | BBB transmigration ([1]; GaCl3, 5 hours) | BBB transmigration ([1]; GaCl3, 24 hours) | Charge (number of positive residues) [2] | PI (isoelectric point) [2] | Cellular interaction (bEnd3 cells [3]; 99mTc, 0.25 hours) | Internalization (bEnd3 cells [3]; 99mTc, 0.25 hours) | Cellular interaction (bEnd3 cells [3]; 99mTc, 5 hours) | Internalization (bEnd3 cells [3]; 99mTc, 5 hours) | Cellular interaction (bEnd3 cells [3]; 99mTc, 24 hours) | Internalization (bEnd3 cells [3]; 99mTc, 24 hours) | Cellular interaction (bEnd3 cells [3]; GaCl3, 0.25 hours) | Internalization (bEnd3 cells [3]; GaCl3, 0.25 hours) | Cellular interaction (bEnd3 cells [3]; GaCl3, 5 hours) | Internalization (bEnd3 cells [3]; GaCl3, 5 hours) | Cellular interaction (bEnd3 cells [3]; GaCl3, 24 hours) | Internalization (bEnd3 cells [3]; GaCl3, 24 hours) | also measured
KEIGRMLNILNRRRR [PepR′] | more limited in crossing the barrier | – | – | – | – | – | – | – | – | – | – | – | – | – | – | – | – | – | – | – | –
KSKAINVLRGFRKEIGRMLNILN [PepH4] | – | 3.30 ± 0.5% | 30.08 ± 1.6% | 0.93 ± 0.1% | 16.60 ± 1.1% | 60.79 ± 2.6% | 6 | 11.7 | 2.06 ± 0.3% | 0.17 ± 0.0% | 10.10 ± 0.1% | 1.53 ± 0.0% | 10.23 ± 0.8% | 2.83 ± 0.2% | 4.06 ± 0.2% | 0.26 ± 0.0% | 3.00 ± 0.1% | 0.78 ± 0.0% | 3.82 ± 0.1% | 1.55 ± 0.1% | where the radiopeptide is found in the uptake test (media, acid wash, lysate) (bEnd3 cells [3]; 99mTc): mainly remained in the incubation medium
KLFMALVAFLRFLT [PepH2] | 9.32 ± 2.5% | 0.79 ± 0.7% | 5.21 ± 3.3% | 0.33 ± 0.1% | 4.06 ± 0.3% | 13.51 ± 0.7% | 2 | 11 | 1.60 ± 0.3% | 2.15 ± 1.2% | 5.95 ± 3.0% | 24.8 ± 2.0% | 2.20 ± 0.4% | – | 0.77 ± 0.1% | 0.84 ± 0.1% | 1.48 ± 0.1% | 6.97 ± 0.3% | 1.16 ± 0.1% | 9.24 ± 1.2% | BBB transmigration ([1]; 99mTc, 5 hours, listed as pepH2): not observed; BBB transmigration ([1]; 99mTc, 24 hours, listed as pepH2): 9%; radioactivity levels in the brain ([4]; 80 μg, after 60 minutes): 0.2%; radioactivity in the brain ([4]; 140 μg (pepH1, pepH3) or 80 μg (pepH2), 2 min): 0.37%; excreted ([4]; 140 μg (pepH1, pepH3) or 80 μg (pepH2), after 60 min): 12.7%; brain uptake ([4]; after 2 min): rapid brain uptake; brain washout ([4]; mouse, in vivo): brain washout was slower; effect on cell viability (bEnd3 cells [5]): small decrease in viability; cell death (bEnd3 cells [5]): no cell death
LVAFLRFLTIPPTAGILKRW [PepM′] | about 50% | – | – | – | – | 47.31 ± 1.2% | 3 | 12.0 | – | – | – | – | 8.32 ± 1.9% | about 13% | – | – | – | – | 2.23 ± 0.1% | 3.68 ± 0.0% | BBB transmigration [1, 7]: 53.47 ± 3.1%; BBB transmigration ([1]; 99mTc, 24 hours, listed as pepM): ~50%; effect on cell viability (bEnd3 cells [5]): small decrease in viability; cell death (bEnd3 cells [5]): no cell death; Internalization (bEnd3 cells [3]; [7]): 12.81 ± 2.0%
B1 | – | – | – | – | – | – | – | – | – | – | – | – | – | – | – | – | – | – | – | – | factor by which washout from the brain is slowed on linking to delivery peptide pepH3 [6]: about 2; factor of increase of presence in the brain on linking to delivery peptide pepH3 [6]: about 6
